Laboratory results: article PMC7559292 (Science (New York, N.Y.), 2020)
“And” between values parts separate entries of the source, which are not always exact repeats. Equal values may be shown once.

B1: TEN1 (subunit of purified recombinant human CST) (natural protein)
chain: MLPKPGTYYLPWEVSAGQVPDGSTLRTFGRLCLYDMIQSRVTLMAQHGSDQHQVLVCTKLVEPFHAQVGSLYIVLGELQHQQDRGSVVKARVLTCVEGMNLPLLEQAIREQRLYKQERGGSQ
B2: CTC1 (subunit of purified recombinant human CST) (natural protein, UniProt Q2NKJ3 1-1217, looked up)
chain: MAAGRAQVPSSEQAWLEDAQVFIQKTLCPAVKEPNVQLTPLVIDCVKTVWLSQGRNQGSTLPLSYSFVSVQDLKTHQRLPCCSHLSWSSSAYQAWAQEAGPNGNPLPREQLLLLGTLTDLSADLEQECRNGSLYVRDNTGVLSCELIDLDLSWLGHLFLFPRWSYLPPARWNSSGEGHLELWDAPVPVFPLTISPGPVTPIPVLYPESASCLLRLRNKLRGVQRNLAGSLVRLSALVKSKQKAYFILSLGRSHPAVTHVSIIVQVPAQLVWHRALRPGTAYVLTELRVSKIRGQRQHVWMTSQSSRLLLLKPECVQELELELEGPLLEADPKPLPMPSNSEDKKDPESLVRYSRLLSYSGAVTGVLNEPAGLYELDGQLGLCLAYQQFRGLRRVMRPGVCLQLQDVHLLQSVGGGTRRPVLAPCLRGAVLLQSFSRQKPGAHSSRQAYGASLYEQLVWERQLGLPLYLWATKALEELACKLCPHVLRHHQFLQHSSPGSPSLGLQLLAPTLDLLAPPGSPVRNAHNEILEEPHHCPLQKYTRLQTPSSFPTLATLKEEGQRKAWASFDPKALLPLPEASYLPSCQLNRRLAWSWLCLLPSAFCPAQVLLGVLVASSHKGCLQLRDQSGSLPCLLLAKHSQPLSDPRLIGCLVRAERFQLIVERDVRSSFPSWKELSMPGFIQKQQARVYVQFFLADALILPVPRPCLHSATPSTPQTDPTGPEGPHLGQSRLFLLCHKEALMKRNFCVPPGASPEVPKPALSFYVLGSWLGGTQRKEGTGWGLPEPQGNDDNDQKVHLIFFGSSVRWFEFLHPGQVYRLIAPGPATPMLFEKDGSSCISRRPLELAGCASCLTVQDNWTLELESSQDIQDVLDANKSLPESSLTDLLSDNFTDSLVSFSAEILSRTLCEPLVASLWMKLGNTGAMRRCVKLTVALETAECEFPPHLDVYIEDPHLPPSLGLLPGARVHFSQLEKRVSRSHNVYCCFRSSTYVQVLSFPPETTISIPLPHIYLAELLQGGQSPFQATASCHIVSVFSLQLFWVCAYCTSICRQGKCTRLGSTCPTQTAISQAIIRLLVEDGTAEAVVTCRNHHVAAALGLCPREWASLLDFVQVPGRVVLQFAGPGAQLESSARVDEPMTMFLWTLCTSPSVLRPIVLSFELERKPSKIVPLEPPRLQRFQCGELPFLTHVNPRLRLSCLSIRESEYSSSLGILASSC
B3: STN1 (subunit of purified recombinant human CST) (natural protein, UniProt Q9H668 1-368, looked up)
chain: MQPGSSRCEEETPSLLWGLDPVFLAFAKLYIRDILDMKESRQVPGVFLYNGHPIKQVDVLGTVIGVRERDAFYSYGVDDSTGVINCICWKKLNTESVSAAPSAARELSLTSQLKKLQETIEQKTKIEIGDTIRVRGSIRTYREEREIHATTYYKVDDPVWNIQIARMLELPTIYRKVYDQPFHSSALEKEEALSNPGALDLPSLTSLLSEKAKEFLMENRVQSFYQQELEMVESLLSLANQPVIHSASSDQVNFKKDTTSKAIHSIFKNAIQLLQEKGLVFQKDDGFDNLYYVTREDKDLHRKIHRIIQQDCQKPNHMEKGCHFLHILACARLSIRPGLSEAVLQQVLELLEDQSDIVSTMEHYYTAF
B4: human CTC1-STN1-TEN1 (CST) complex, purified recombinant heterotrimer (complex)
chain 1: AAGRAQVPSSEQAWLEDAQVFIQKTLCPAVKEPNVQLTPLVIDCVKTVWLSQGRNQGSTLPLSYSFVSVQDLKTHQRLPCCSHLSWSSSAYQAWAQEAGPNGNPLPREQLLLLGTLTDLSADLEQECRNGSLYVRDNTGVLSCELIDLDLSWLGHLFLFPRWSYLPPARWNSSGEGHLELWDAPVPVFPLTISPGPVTPIPVLYPESASCLLRLRNKLRGVQRNLAGSLVRLSALVKSKQKAYFILSLGRSHPAVTHVSIIVQVPAQLVWHRALRPGTAYVLTELRVSKIRGQRQHVWMTSQSSRLLLLKPECVQELELELEGPLLEADPKPLPMPSNSEDKKDPESLVRYSRLLSYSGAVTGVLNEPAGLYELDGQLGLCLAYQQFRGLRRVMRPGVCLQLQDVHLLQSVGGGTRRPVLAPCLRGAVLLQSFSRQKPGAHSSRQAYGASLYEQLVWERQLGLPLYLWATKALEELACKLCPHVLRHHQFLQHSSPGSPSLGLQLLAPTLDLLAPPGSPVRNAHNEILEEPHHCPLQKYTRLQTPSSFPTLATLKEEGQRKAWASFDPKALLPLPEASYLPSCQLNRRLAWSWLCLLPSAFCPAQVLLGVLVASSHKGCLQLRDQSGSLPCLLLAKHSQPLSDPRLIGCLVRAERFQLIVERDVRSSFPSWKELSMPGFIQKQQARVYVQFFLADALILPVPRPCLHSATPSTPQTDPTGPEGPHLGQSRLFLLCHKEALMKRNFCVPPGASPEVPKPALSFYVLGSWLGGTQRKEGTGWGLPEPQGNDDNDQKVHLIFFGSSVRWFEFLHPGQVYRLIAPGPATPMLFEKDGSSCISRRPLELAGCASCLTVQDNWTLELESSQDIQDVLDANKSLPESSLTDLLSDNFTDSLVSFSAEILSRTLCEPLVASLWMKLGNTGAMRRCVKLTVALETAECEFPPHLDVYIEDPHLPPSLGLLPGARVHFSQLEKRVSRSHNVYCCFRSSTYVQVLSFPPETTISIPLPHIYLAELLQGGQSPFQATASCHIVSVFSLQLFWVCAYCTSICRQGKCTRLGSTCPTQTAISQAIIRLLVEDGTAEAVVTCRNHHVAAALGLCPREWASLLDFVQVPGRVVLQFAGPGAQLESSARVDEPMTMFLWTLCTSPSVLRPIVLSFELERKPSKIVPLEPPRLQRFQCGELPFLTHVNPRLRLSCLSIRESEYSSSLGILASSC
chain 2: QPGSSRCEEETPSLLWGLDPVFLAFAKLYIRDILDMKESRQVPGVFLYNGHPIKQVDVLGTVIGVRERDAFYSYGVDDSTGVINCICWKKLNTESVSAAPSAARELSLTSQLKKLQETIEQKTKIEIGDTIRVRGSIRTYREEREIHATTYYKVDDPVWNIQIARMLELPTIYRKVYDQPFHSSALEKEEALSNPGALDLPSLTSLLSEKAKEFLMENRVQSFYQQELEMVESLLSLANQPVIHSASSDQVNFKKDTTSKAIHSIFKNAIQLLQEKGLVFQKDDGFDNLYYVTREDKDLHRKIHRIIQQDCQKPNHMEKGCHFLHILACARLSIRPGLSEAVLQQVLELLEDQSDIVSTMEHYYTAF
chain 3: LPKPGTYYLPWEVSAGQVPDGSTLRTFGRLCLYDMIQSRVTLMAQHGSDQHQVLVCTKLVEPFHAQVGSLYIVLGELQHQQDRGSVVKARVLTCVEGMNLPLLEQAIREQRLYKQERGGSQ

Columns and labels:
[1] = molecular target: B2; experiment: cryo-EM structure
[2] = molecular target: B3; experiment: cryo-EM structure
[3] = molecular target: the molecule itself; experiment: cryo-EM structure
[4] = molecular target: the molecule itself; experiment: negative-stain EM

Binder: B1
binding result [1]: binds
stoichiometry N [2]: 1

Binder: B2
binding result [3]: binds

Binder: B3
stoichiometry N [1]: 1

Binder: B4
stoichiometry N [4]: 4 and 2
